In patent publication KR20210010236A (dated 2021):

Experiments:
[1] = biological target: T1, Full-length(FL)-WRS, human tryptophanyl-tRNA synthetase (NP_004175.2) (human, UniProt P23381 2-471); assay: SPR (Biacore 2000), FL-WRS immobilised on a CM5 chip, antibody 6.25-100 nM as analyte
T1 construct: In the western blot and immunoprecipitation the target was endogenous WRS in lysates of human cells (HeLa, HCT116, HEK293F); also called Human WRS; TrpRS
T1 sequence: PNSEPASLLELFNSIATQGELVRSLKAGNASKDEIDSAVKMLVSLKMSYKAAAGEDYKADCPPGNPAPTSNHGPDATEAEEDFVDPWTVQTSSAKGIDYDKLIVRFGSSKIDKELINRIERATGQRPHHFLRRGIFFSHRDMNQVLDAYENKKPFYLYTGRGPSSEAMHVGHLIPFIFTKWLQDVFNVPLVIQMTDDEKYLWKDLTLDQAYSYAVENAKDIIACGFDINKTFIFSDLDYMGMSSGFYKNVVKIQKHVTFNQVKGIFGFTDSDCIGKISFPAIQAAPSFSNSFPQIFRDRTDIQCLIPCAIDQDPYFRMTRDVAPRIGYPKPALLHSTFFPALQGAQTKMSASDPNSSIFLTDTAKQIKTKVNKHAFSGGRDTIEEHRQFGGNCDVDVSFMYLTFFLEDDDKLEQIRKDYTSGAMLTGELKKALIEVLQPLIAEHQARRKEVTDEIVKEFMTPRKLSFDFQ

[2] = biological target: T1, Full-length(FL)-WRS, human …; assay: cell-based or functional assay
[3] = biological target: T1, Full-length(FL)-WRS, human …; assay: western blot on HeLa and HCT116 cell lysates, purified scFv detected with anti-HA-HRP

B1: 3C6 IgG 단일클론 항체 (anti-WRS(3C6) IgG) (antibody, V domains shown)
VH: EVQLLESGGGLVQPGGSLRLSCAASGFTFSSYDMSWVRQAPGKGLEWVSAISSGGSSIYYADSVKGRFTISRDNSKNTLYLQMNSLRAEDTAVYYCARDVAWDMLGDFDYWGQGTLVTVSS
VL: QSVLTQPPSASGTPGQRVTISCTGSSSNIGSNYVYWYQQLPGTAPKLLIYANSHRPSGVPDRFSGSKSGTSASLAISGLRSEDEADYYCGAWDDSLSAYVFGGGTKLTV
notes: The variable regions of the 3C6 scFv were converted to IgG (pcDNA3.4 vectors, expressed in HEK293F, purified on protein A); also called 3C6 IgG 항체; WRS(3C6) 항체
[1]
  Kd: 17.2 nM
  koff: 0.0011 s⁻¹
  kon: 64100 M⁻¹ s⁻¹
[2]
  EC 50 (inhibition of human WRS-induced TNF-α secretion by differentiated THP-1 macrophages): 0.035 nM

B2: 3C6 scFv (scFv)
scFv: EVQLLESGGGLVQPGGSLRLSCAASGFTFSSYDMSWVRQAPGKGLEWVSAISSGGSSIYYADSVKGRFTISRDNSKNTLYLQMNSLRAEDTAVYYCARDVAWDMLGDFDYWGQGTLVTVSSGGGGSGGGGSGGGGSQSVLTQPPSASGTPGQRVTISCTGSSSNIGSNYVYWYQQLPGTAPKLLIYANSHRPSGVPDRFSGSKSGTSASLAISGLRSEDEADYYCGAWDDSLSAYVFGGGTKLTV
notes: The scFv comes from an HA-tagged human scFv phage library; It was expressed in the E. coli periplasm, purified on Ni-NTA and detected with anti-HA-HRP; also called 3C6 scFv clone
[3]
  binding result: binds
